Earlier results on one molecule are cited in patent US6200966A, “Compositions for inhibiting airway wall inflammation” (Amrad Operations Pty. Ltd., priority 1996, dated 2001).

In the data set the test system is cultured airway smooth muscle. Conditions: various species.

B1: PDGFBB: platelet-derived growth factor (protein, UniProt P01127 82-190, looked up)
Platelet-derived growth …: SLGSLTIAEPAMIAECKTRTEVFEISRRLIDRTNANFLVWPPCVEVQRCSGCCNNRNVQCRPTQVQLRPVQVRKIEIVRKKPIFKKATVTLEDHLACKCETVAAARPVT
In the case of B1, the “mitogenic activity on airway smooth muscle” value was “most effective proliferative agents”.
